Source: article doi:10.1101/2023.07.27.550818 (bioRxiv, 2023)

Molecular target: the molecule itself
Experiment: crystal structure

B1: PcaR (natural protein, P. putida, UniProt Q52154 1-291, looked up)
chain: MSDETLVNDPVNPEPARPASAAMAPPIVASPAKRIQAFTGDPDFMTSLARGLAVIQAFQERKRHLTIAQISHRTEIPRAAVRRCLHTLIKLGYATSDGRTYSLLPKVLTLGHAYLSSTPLAISAQPYLDRISDQLHEAANMATLEGDDILYIARSATVERLISVDLSVGGRLPAYCTSMGRILLAAMDDTSLREYLGRADLKARTSRTLHDPESLFACIQQVRAQGWCVVDQELEQGLRSIAVPIYDASGQVLAALNVSTHVGRVTRSELEQRFLPILLAASRDLCHQLFG
- binding result: binds
